Consider 2 molecules from patent US8273357B2, “Antigen-carbohydrate conjugates” (Massachusetts Institute of Technology, priority 2004, dated 2012).

One assay deals with langerin (Homo sapiens, UniProt Q9UJ71). Conditions: solid-phase binding studies; cited from earlier work.
Another assay has as its system OTII T cells. The experiment in a line: Adoptive transfer, immunization, OVA peptide/CFA rechallenge at day 8, OTII cell count at day ten. The assay is classed as in vivo, mouse. On the procedure: FIGS. 8A and 8B are a series of dot plots (FIG. 8A) and a graph (FIG. 8B) showing that the oligosaccharide-mediated targeting of steady state dendritic cells leads to T cell tolerance. […] 2×10^7 OTII splenocytes were adoptively transferred into B6.Ly5.2/Cr recipients and then immunized by subcutaneous injection with PBS, OVA (200 ng), (OVA)-3-1 (200 ng), (OVA)-3-1 (200 ng)+mBSA (50 μg) or OVA peptide (100 μg) in Incomplete Freund's Adjuvant. At 8 days after these initial immunizations, mice received an antigenic rechallenge of OVA peptide (100 μg) in Complete Freund's Adjuvant. On day ten mice were sacrificed and cells were isolated from the draining lymph node, total T cells were purified by negative selection and the number of OTII T cells were counted by FACS as described for FIG. 6. […] Purified T cells from each experimental group were seeded at 3×10^5 cells/well with purified […] dendritic cells (9×10^4/well) and were incubated for twenty-four hours±OVA peptide (100 μg mL^−1) with [^3H]thymidine (1 μCi) added for the last ten hours. Prior to [^3H]thymidine addition, an aliquot of supernatant was removed for IFN-γ determination by ELISA.
At three days post-immunization, antibody-based targeting of the DEC-205 receptor led to a 6.5-fold enhancement of T cell activation relative to non-targeted antigen^2. After seven days, however, the activated T cell population diminished in number by 88% and the remaining T cells were unresponsive to systemic challenge of antigen in the highly stimulatory adjuvant CFA. […] To more fully understand the immunological consequences of these enhancements, OVA peptide (100 μg) was administered in CFA at eight days post-antigen immunization and the T cells' ability to respond to DC-presented peptide in vitro was assayed two days later (FIGS. 8A and 8B)^2: A positive control for T cell tolerance, consisting of a high dose administration of OVA peptide (100 μg) in Incomplete Freund's Adjuvant was also included. This regimen has been shown in a number of different studies to led to a state of T cell unresponsiveness upon antigen rechallenge^24,25.

For another assay, the system named is B cells and macrophages. Put plainly: Antigen presentation with B cells and macrophages (non-dendritic cells) as antigen-presenting cells. The assay is classed as cell-based, mouse. Conditions: in place of purified dendritic cells. On the procedure: FIGS. 4A, 4B, 4C and 4D are graphs showing that CD11c^+ dendritic cells are the main antigen presenting cells presenting 3-1-targeted antigen. […] 1.5×10^4 Splenic CD11c^+ dendritic cells purified from C57BL/6 mice and 3.0×10^4 purified OTII T cells were incubated with OVA (starting concentration 300 μg mL^−1) or (OVA)-3-1 (starting concentration 25 μg mL^−1) in graded doses for eight-four hours with [^3H]thymidine (1 μCi) added for the last twelve hours. […] Purified CD11c^+ dendritic cells and OTII T cells were incubated with (OVA)-3-1 (25 μg mL^−1)±each potential inhibitor (100 μg mL^−1). T cell proliferation was determined as for FIG. 4A. […] CD11c^+ dendritic cells and OTII T cells were incubated with OVA or (OVA)-3-1±lipopolysaccharide ([…]). Also included are all ‘non-dendritic cells’ (macrophages and B cells) obtained during the purification of the dendritic cells. T cell proliferation was determined as described in FIG. 4A. […] Supernatants from cells described in FIG. 4C were collected at forty-eight and seventy-two hours and measured for IFN-γ by ELISA; the values presented are from the seventy-two hour time point. All measurements here were performed in triplicate. […]

Where [1] appears, read: two days post-antigen rechallenge in CFA (day ten).

langerin, sequence (Q9UJ71 whole entry, species assumed): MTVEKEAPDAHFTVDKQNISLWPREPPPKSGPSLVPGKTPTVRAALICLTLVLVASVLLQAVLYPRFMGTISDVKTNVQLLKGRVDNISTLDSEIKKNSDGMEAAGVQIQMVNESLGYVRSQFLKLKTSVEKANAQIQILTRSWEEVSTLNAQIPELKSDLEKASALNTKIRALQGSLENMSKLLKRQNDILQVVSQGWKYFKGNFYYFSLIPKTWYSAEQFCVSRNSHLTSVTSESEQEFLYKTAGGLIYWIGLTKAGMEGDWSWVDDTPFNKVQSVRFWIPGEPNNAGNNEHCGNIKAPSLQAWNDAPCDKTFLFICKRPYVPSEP

On to “mBSA: BSA modified with approximately 25 mannose residues per protein molecule [reference compound]”, for which the binding by langerin result in the assay with langerin is “bound by langerin”.

B1: (OVA)-3-1: ovalbumin modified via SMCC with nonasaccharide 3-1, average of three saccharides per OVA (conjugate)
chain: GSIGAASMEFCFDVFKELKVHHANENIFYCPIAIMSALAMVYLGAKDSTRTQINKVVRFDKLPGFGDSIEAQCGTSVNVHSSLRDILNQITKPNDVYSFSLASRLYAEERYPILPEYLQCVKELYRGGLEPINFQTAADQARELINSWVESQTNGIIRNVLQPSSVDSQTAMVLVNAIVFKGLWEKAFKDEDTQAMPFRVTEQESKPVQMMYQIGLFRVASMASEKMKILELPFASGTMSMLVLLPDEVSGLEQLESIINFEKLTEWTSSNVMEERKIKVYLPRMKMEEKYNLTSVLMAMGITDVFSSSANLSGISSAESLKISQAVHAAHAEINEAGREVVGSAEAGVDAASVSEEFRADHPFLFCIKHIATNAVLFFGRCVSP
As for B1, the “number of OTII T cells compared with OVA immunized mice” value with OTII T cells (day ten after immunization) was “much greater number”. Moreover, the “T cell deletion in vivo” value in the assay with OTII T cells (mouse, in vivo) is listed as “not observed”. In the assay on OTII T cells (setting [1]), the “number of OTII cells relative to the saline control group” value came out at 6 fold and the “number of OTII cells relative to unmodified (soluble) OVA” value is recorded as 7.8 fold. The “T cell responses with B cells and macrophages as antigen-presenting cells” value with B cells and macrophages is recorded as “negligible”.
